The results in this text go back to the nanobody polyreactivity screen of Harvey et al. (2022).

This series in a line: yeast display, Sf9 membrane polyspecificity reagent, FACS + sequencing; frameworks hold sequencing errors. A digest of the protocol:
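Synthetic nanobody libraries on Saccharomyces cerevisiae BJ5465 were galactose-induced for 36–48 hours, stained 1 hour at 4 °C with 10% biotinylated, detergent-solubilized Sf9 membrane reagent and enriched on streptavidin microbeads. FACS then separated cells into low and high (top ~1%) gates by anti-HA (expression) and streptavidin (reagent binding) fluorescence. Genes were colony-PCR amplified, MiSeq 2 × 250 sequenced and CDR-length filtered. A clone's polyreactivity label is that of its gate of origin.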
“QVQLVESGGGLVQAGGSLRLSCAASGFIFYGYDMGWYRQAPGKETELVASISVRGGDTYYADSVKGRFTISRDNAKNTVYLQMNSLKPEDTAVYDCNAEGYPGRFSYGVVYGDVGYDYWGQGTQVTVSS”: the “polyreactivity (PSR sort gate)” value is given as “low polyreactivity”. On to “QVQLVESGGGLVQAGGSLRLSCAASGFIFYIYAMGWYRQAPGKERELVAAISWNGGSTYYADSVKGRFTISRDNAKNTVYLQMNSLKPEDTAVYYCATLARYRYGTGRFDYCGQGTQVTVSS”, for which the “polyreactivity (PSR sort gate)” value was “high polyreactivity”. As for “QVQLVESGGGLVQAGGSLRLSCAASGFIFYKNAMGWYRQAPGKERELVAAINFSTGRTYYADSVKGRFTISRDNAKNTVYLQMNSLKPEDTAVYDCATKSANPRKYYYWGQVTQVTVSS”, the entry is “high polyreactivity”.

Regarding “QVQLVESGGGLVQAGGSLRLSCAASGFIFYKNAMGWYRQAPGKERELVAAITQRGGRTYYADSVKGRFTISRDNSKNTVYLQMNSLKPEDTAVYYCAAKALYGKQAWRYNYWGQGTQVTVSS”, the “polyreactivity (PSR sort gate)” value was “high polyreactivity”.

Turning to “QVQLVESGGGLVQAGGSLRLSCAASGFIFYKYTMGWYRQAPGKERELVAAISTSGGRTYYADSVKGRFTISRDNAKNTVYLQMNSLKPEDTAVYYCAAQYSYPYYKVTLYYWGQGTQVTVSS”, the “polyreactivity (PSR sort gate)” value was “high polyreactivity”.

As to “QVQLVESGGGLVQAGGSLRLSCAASGFIFYLYARGWYRQAPGKERELVAAITRRGGSTYYADSVKGRFTISRDIAKNTFYLQMNSLKPEDTAVYYCAADHYGFFSAGDFDYWGQGTQVTVSS”, the “polyreactivity (PSR sort gate)” value is “high polyreactivity”.

Consider “QVQLVESGGGLVQAGGSLRLSCAASGFIFYLYTMGWYRQAPGTEMEVVAAITQSGTRTYYADSVKGRFTISRDNAKNTVYLQMNSLKPVDTAVYYCAAEWGSSYRWGMDYWGQGTQVTVSS”, for which the “polyreactivity (PSR sort gate)” value is on record as “high polyreactivity”. Take “QVQLVESGGGLVQAGGSLRLSCAASGFIFYNYAMGWYRQAPGKERELVAAITGGGSTNYADSVKGRFTISRDNAKNTVYLQMNSLKPEDTAVYYCAAEEGPPWSRYDYWGQGTQVTVSS”: the “polyreactivity (PSR sort gate)” value is “low polyreactivity”. As for “QVQLVESGGGLVQAGGSLRLSCAASGFIFYPYAMGWYRQAPGKERELVASIYSGGRTYYADSVKGRFTISRDNAKHTVYLQMNSLKPEDTAVYYCNARSRYFGYDYWGQGTQVTVSS”, the entry is “high polyreactivity”. On to “QVQLVESGGGLVQAGGSLRLSCAASGFIFYPYAMGWYRQAPGKERELVASIYSGGRTYYADSVKGRFTISRDNAKNTVYLQMNSLKPEDTAVYYCNARSRYFGYDYWGQGTQVTVSS”, for which the “polyreactivity (PSR sort gate)” value is given as “high polyreactivity”. Under “QVQLVESGGGLVQAGGSLRLSCAASGFIFYPYAMGWYRQAPGKERELVAVITSGGRTYYADSVKGRFTISRDNAKNTVYLQMNSLKPEDTAVYYCAARYGSIHWKANWPEYGYWGQGTQVTVSS” stands “low polyreactivity”; under “QVQLVESGGGLVQAGGSLRLSCAASGFIFYPYAMGWYRQATGKETELVAAITWSGGTTTYADSEKGRFTISRDNAKNTVYLQMNSLKPEDTAVYSCAALWYYGRYPYDYWGQGTQVTVSS”, “high polyreactivity”; under “QVQLVESGGGLVQAGGSLRLSCAASGFIFYQYAMGWYRQAPGKERELVAAISRSGGSTYYADSVKGRFTISRDNAKNTVYLQMNSLKPEDTAVYYCNAVYRSIRPRYDYWGQGTQVTVSS”, “high polyreactivity”. As for “QVQLVESGGGLVQAGGSLRLSCAASGFIFYRNAMGWYRQAPGKERELVAAISQRGGRTYADSVKGRFTISRDNAKNTVYLQMNSLKPEDTAFYYCAADGARLSQTTRRFDYWGQGTQVTVSS”, the entry is “low polyreactivity”. On to “QVQLVESGGGLVQAGGSLRLSCAASGFIFYRNTMGWYRQAPGKERELVAANSVSGGSTNYADSVKGRFTISRDNAKNTVYLQMNSLKPEDSAVYYCAARVRDSLVYGGWDDYWGQGTQVTVSS”, for which the “polyreactivity (PSR sort gate)” value was “high polyreactivity”. Under “QVQLVESGGGLVQAGGSLRLSCAASGFIFYRYAKGWYRQPPGKERELVAAITKSGTSTYYADSVKGRFTISRDNAKNTVYLQMNSLKPEDTAVYYCNADVRSRSRGSSGYDYWGQGTQVTVSS” stands “low polyreactivity”; under “QVQLVESGGGLVQAGGSLRLSCAASGFIFYRYAMGWYRPAPGKERELVAAISRSGGTTYYADSVKGRFTISRDNAKNTVYLQMNSLKPEETAVYYCAAVGTVSRTVGYKYWGQGTQVTVSS”, “high polyreactivity”; under “QVQLVESGGGLVQAGGSLRLSCAASGFIFYRYAMGWYRQAPGKERELVAAISSSGGSTYYADSVKGRFTISRDNAKNTVYLQMNSLKPEDTAVYYCAAEPSGKRSKFYYWGQGTQVTVSS”, “high polyreactivity”. Turning to “QVQLVESGGGLVQAGGSLRLSCAASGFIFYRYAMGWYRQAPGKERELVAAITGGGSTYYADSVKGRFTISRDNAKNNFYLQMNSLKPEDTAVYYCAARKRYWFTPYDYWGQGTQVTVSS”, the “polyreactivity (PSR sort gate)” value was “high polyreactivity”. Under “QVQLVESGGGLVQAGGSLRLSCAASGFIFYRYAMGWYRQAPGKERELVASITRSGGSTYYADSVKGRFTISRDNAKNTVYLQMNCLKPEDTAVYYCAADRYLGTYRYRYDYWGQGTQVTVSS” stands “high polyreactivity”; under “QVQLVESGGGLVQAGGSLRLSCAASGFIFYRYLMGWYRQAPGKERELVAAISRSGDRTYYADSVKGRFTISRDNAKNTVYLQMNSLKPEDTAVYDCAAALYYFSRGYWGQGTQVTVSS”, “high polyreactivity”; under “QVQLVESGGGLVQAGGSLRLSCAASGFIFYSNAMGSYRQAPGKERELVASITGDGGTTYYADSVKGRFTISRDNAKTTGYLEMNSLKPEDTAVYYCAKDYIYRGYYTDFRYEDYDYWGQGTQVTVSS”, “low polyreactivity”. Under “QVQLVESGGGLVQAGGSLRLSCAASGFIFYSNAMGWYSQAPGKVRELVAAISRGGGSTYYADSVKGRFTISRDNAKNTVYLQMNSLKPEDTAVYYCAKRRLSPQDDYWGQGTQVTLSS” stands “high polyreactivity”; under “QVQLVESGGGLVQAGGSLRLSCAASGFIFYSYTMGWYRQAPGKERELVATISSNGGRTYYADSVKGRFTISRDNAKNTVYLQMNSLKPEDTAVYYCATDVPHGYYWSYGDYYWGQGTQVTVSS”, “low polyreactivity”. Regarding “QVQLVESGGGLVQAGGSLRLSCAASGFIFYTYTRGWSRQAHGKERELVAAISYSGGRTYSADSVKGRFTISRDNAKNTVYLQMNSLKPEDTAVYYCAARRYYNSVANENNYWGQGTQVTVSS”, the “polyreactivity (PSR sort gate)” value was “high polyreactivity”. Under “QVQLVESGGGLVQAGGSLRLSCAASGFIFYYAMGWYRPAPGKERELVAGITESDGSTNYADSVKGRFTISRDNAKNTVYLQMNSLKPEDTAVYYCAKDASSLRFDYWGQGTQVTVSS” stands “low polyreactivity”; under “QVQLVESGGGLVQAGGSLRLSCAASGFIFYYAMGWYRQAPVKERELVAAISRGGSTNYADSVKGRFTISRDNAKNTVYLQMNSLKPEDTAVYYCNARVYSSRARWGTYDYWGQGTQVTVSS”, “high polyreactivity”; under “QVQLVESGGGLVQAGGSLRLSCAASGFIFYYNAMGWYRQAPGKERELVAAISTDGGSTYYADSVKGRFTISRDNAKNTVYLQMNSLNPEDTAVYYCAAKRYKRYDYWGQGTQVTVSS”, “low polyreactivity”. As for “QVQLVESGGGLVQAGGSLRLSCAASGFIFYYNAMGWYRQAPGKERELVAAITRSGGSTFYADSVKGRFTISRDNAKNTVYLQMNSLKPEDTAVYYCAAKGNPYRVPGSSYPKVNYWGQGTQVTVSS”, the entry is “high polyreactivity”. As for “QVQLVESGGGLVQAGGSLRLSCAASGFIFYYNAMGWYRQAPGKERELVATIRGSGGSTYYADSVKGRFTISRDNAKNTVYLQMNSLKPEDTAVYYCATTIYGLTSRLYYWGQGTQVTVSS”, the “polyreactivity (PSR sort gate)” value was “high polyreactivity”.

As to “QVQLVESGGGLVQAGGSLRLSCAASGFIFYYNTMGWYRQAPGKERELVAAINSGGSTYYADSVKGRFTISRDNAKNTVYLQMNSLKPEDTAVYYCAKRYAVSSRYYYWGQGTQVTVSS”, the “polyreactivity (PSR sort gate)” value was “high polyreactivity”.

“QVQLVESGGGLVQAGGSLRLSCAASGFIFYYNTMVWYRQAPGKERELVASITWSGDTTYYADSVKGRFTISRDNAKNTVYLQMNSLKPEDTAVYYCAAVHYYPYRRYDYWGQGTQVTVSS”: the “polyreactivity (PSR sort gate)” value is “low polyreactivity”. Under “QVQLVESGGGLVQAGGSLRLSCAASGFIFYYYAMGWYRQAPGKERELVAAISKSGGSTYYADSVKGRFTISRDNAKKTVYLQMNSLIPEDTAVYYCAAVVTTWPYYGFGYWGQGTQVTVSS” stands “high polyreactivity”; under “QVQLVESGGGLVQAGGSLRLSCAASGFIFYYYAMGWYRQAPGKERELVAAISSGDDTTYADSVKGRFTISRDNAKNTVYLKMNSLKPEDTAVYYCNSERSVKQQGPYGYWGQGTQVTVSS”, “low polyreactivity”; under “QVQLVESGGGLVQAGGSLRLSCAASGFIFYYYAMGWYRQAPGKERELVAAISWSGGSTYYADSVKGRFTISRDNAKNTVYLQMNSLKPEDTAVYDCAVSRDSYGGKGSFLYDYWGQGTQVTVSS”, “low polyreactivity”.

In the case of “QVQLVESGGGLVQAGGSLRLSCAASGFIFYYYAMGWYRQAPGKERELVAGITATGGSTYYEDSVKGRFTISRDNAKNTVYLQMNSLKPEDTAVYYCAAEHGRRATYTWWVIYDYWGQGTQVTVSS”, the “polyreactivity (PSR sort gate)” value is “low polyreactivity”. Under “QVQLVESGGGLVQAGGSLRLSCAASGFIFYYYAMGWYRQAPGKERELVARISRVGSTYYADSVKGRFTISRDNAKNTVYLQINSLKPEDTAVYYCAKVSIARIKTRYNYWGQATQVTVSS” stands “high polyreactivity”; under “QVQLVESGGGLVQAGGSLRLSCAASGFIGIYAMGWYRQAPGKERELVAAITTSGGRTYYADSVKGRFTISRDNAKNTVYLQMNSLKPEDTAVYYCAADYQAYTAEDKVIVWYDYWGQGTQVTVSS”, “low polyreactivity”. “QVQLVESGGGLVQAGGSLRLSCAASGFIGSNTMGWYRQAPGKERELVAAISWSGGSTYYADSVKGRFTISRDNAKNTVYLQMNSLKPEDTAVYYSAARRNSRARRTFGYWGQGTQVTVSS”: the “polyreactivity (PSR sort gate)” value is on record as “high polyreactivity”.

Regarding “QVQLVESGGGLVQAGGSLRLSCAASGFIIDANTMGWYRQAPGKERELVAAINESGGSTYYADSVKGRFTISRDNAKNTVYLQMNSLKPEDTAVYYCAADPTWDYGWSGYPYYYYWGQGTQVTVSS”, the “polyreactivity (PSR sort gate)” value was “high polyreactivity”.
